In article PMC3975505 one finds stoichiometry N data, which are given here for one molecule.

This test has as its target lnkH2B-H2A.Z (linked H2B-H2A.Z, single polypeptide chain) (human) (UniProt Q16778). The test is described as follows: AUC.

The stoichiometry N is the number of molecules, sites or subunits per partner or assembly. EEEEEEEEEDEDEDEDEDEAGSELGEGEEEVGLSYLMKEEIQDEEDD (domain or fragment) [Anp32e_(186-232)] showed a stoichiometry N of 1.
